The text below walks through data of article PMC3762189.

For experiment [1], the target named is branch junction (bovine Arp2/3 complex with mother and daughter actin filaments) (bovine | rabbit) (UniProt P61157). The experiment is described as follows: single-molecule TIRF microscopy; during active branching: 1 µM 33% Oregon-Green actin, 10 nM Arp2/3 complex, 350 nM VCA and 10 nM Alexa568-NtA(1-48).
Experiment [2] has the same target. In words: single-molecule TIRF microscopy; during active branching: 1 µM 33% Oregon-Green actin, 5 nM Arp2/3 complex, 50 nM VCA and 2 nM Alexa568-cortactin; average lifetimes for each binding class.
Experiment [3] deals with actin filaments (33% Oregon-Green actin), filament sides (rabbit) (UniProt P68135). The experiment is described as above.
Experiment [4] concerns the target branch junction (bovine Arp2/3 complex with mother and daughter actin filaments) (bovine | rabbit) (UniProt P61157). In words: single-molecule TIRF microscopy; preformed branched networks (1 µM 33% Oregon-Green actin, 5 nM Arp2/3 complex, 30 nM VCA, ~6 min), then 1.5 nM Alexa568-cortactin and 0.1 µM actin monomers; koff from lifetimes, KD from the average fraction bound, kon calculated from KD and koff.

Experiment [5] addresses actin filaments (33% Oregon-Green actin), filament sides (rabbit) (UniProt P68135). The experiment is described as above.
Experiment [6] shares this target. In words: single-molecule TIRF microscopy; 2 nM Alexa568-cortactin (1–336) on polymerizing filaments of 1 µM 33% Oregon-Green actin, no Arp2/3 complex; filaments tethered by biotinylated myosin; lifetimes fit with a single exponential.
Experiment [7] concerns the target G-actin (rabbit muscle actin monomers) (rabbit) (UniProt P68135). In words: fluorescence polarisation; competition: anisotropy of 50 nM Rhodamine-VCA with 150 nM G-actin and increasing VCA or VCA mutants; 10 mM Hepes pH 7.0, 50 mM KCl, 1 mM MgCl2, 1 mM EGTA, 1 mM DTT, 0.2 mM ATP, 350 nM Latrunculin B; KD is the mean of at least three fits.
For experiment [8], the target named is branch junction (bovine Arp2/3 complex with mother and daughter actin filaments) (bovine | rabbit) (UniProt P61157).

cortactin NtA (residues 1–84), sequence (Q60598 1-84): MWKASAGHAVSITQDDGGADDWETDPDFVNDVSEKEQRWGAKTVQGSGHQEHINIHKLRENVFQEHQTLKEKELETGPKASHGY

In turn, “Alexa568-NtA(1-48) (from UniProt Q60598 1-48) (domain or fragment)” gave a time bound after daughter filament nucleation (one event shown) in experiment [1] of 4.5 s.
As usually defined, the Kd is the free concentration of one partner at which half of the binding sites on the other are occupied at equilibrium, for simple one-to-one binding. Usually koff stands for the rate constant with which the complex falls apart. By kon is commonly meant the second-order rate constant of association. In experiment [2], “Alexa568-cortactin (residues 1–336) (from UniProt Q60598 1-336) (domain or fragment)” came in with an average lifetime at the junction after nucleation of 62 s, an average lifetime before nucleation (nascent branch junction) of 6.5 s and an average lifetime on existing branch junctions during active branching of 29.5 s. Also, the lifetime on filament sides during active branching in experiment [3] was 8 s. In experiment [4], the equilibrium dissociation constant (Kd) is 17 nM, the average lifetime on branch junctions (preformed filament reactions) is 29.1 s, the dissociation rate constant (koff) was 0.034 s⁻¹ and the association rate constant (kon) was 2e+06 M⁻¹ s⁻¹. Moreover, in experiment [5], the dissociation constant (Kd) is 5210 nM, the off-rate (koff) is 0.063 s⁻¹ and the on-rate (kon) is 12100 M⁻¹ s⁻¹. The substance also showed a koff in experiment [6] of 0.05 s⁻¹.
In experiment [7], “N-WASP-VCA(E455R) (from UniProt Q95107 1-505) (domain or fragment)” had a Kd of 630 nM.
“N-WASP-VCA(R442A) (from UniProt Q95107 1-505) (domain or fragment)”: the Kd in experiment [7] was found to be 11200 nM.
On to “cortactin NtA (residues 1–84) (from UniProt Q60598 1-84) (domain or fragment)”, for which the concentration of NtA (1–84) required for half-maximal synergy with GST-VCA (maximum rate of pyrene-actin polymerization; 2 µM 15% pyrene-actin, 20 nM Arp2/3 complex, 250 nM GST-VCA) in experiment [8] was 11 µM.
